# Test results from patent publication US20030135880A1, “Compositions and methods for halogenation reactions” (priority 2002, published 2003).
# B1: PrnA: PrnA purified from Pseudomonas fluorescens, positive control added to non-transformed plant extract (protein)
# chain: MNKPIKNIVIVGGGTAGWMAASYLVRALQQQANITLIESAAIPRIGVGEATIPSLQKVFFDFLGIPEREWMPQVNGAFKAAIKFVNWRKSPDPSRDDHFYHLFGNVPNCDGVPLTHYWLRKREQGFQQPMEYACYPQPGALDGKLAPCLSDGTRQMSHAWHFDAHLVADFLKRWAVERGVNRVVDEVVDVRLNNRGYISNLLTKEGRTLEADLFIDCSGMRGLLINQALKEPFIDMSDYLLCDSAVASAVPNDDARDGVEPYTSSIAMNSGWTWKIPMLGRFGSGYVFSSHFTSRDQATADFLKLWGLSDNQPLNQIKFRVGRNKRAWVNNCVSIGLSSCFLEPLESTGIYFIYAALYQLVKHFPDTSFDPRLSDAFNAEIVHMFDDCRDFVQAHYFTTSRDDTPFWLANRHDLRLSDAIKEKVQRYKAGLPLTTTSFDDSTYYETFDYEFKNFWLNGNYYCIFAGLGMLPDRSLPLLQHRPESIEKAEAMFASIRREAERLRTSLPTNYDYLRSLRDGDAGLSRGQRGPKLAAQESL
# Target: PrnA (Pseudomonas fluorescens, UniProt P95480)
# Assay: Halogenation by PrnA expressed in transgenic plants, immunopurified and assayed in vitro (Example 5)
# Format: biochemical
# Set-up: made in house; host or cells: Transgenic Arabidopsis thaliana (Columbia) lines 3 and 12; leaf extract immunopurified on goat anti-PrnA sera with anti-goat-IgG-agarose
# Conditions: immunopurified PrnA with Fre (20 microliter, 21 microgram/ml), overnight
# Procedure: Arabidopsis thaliana, ecotype Columbia, is transformed (by the Agrobacterium-mediated transformation method) with the four nucleic acid molecules of the pyrrolnitrin operon, encoding PrnA, PrnB, PrnC & PrnD, each behind the ubiquitin promoter as described below in Example 6.
# Two transformed lines (3 and 12) and a nontransformed control line are grown and leaves (1 g) harvested. The leaves are frozen in liquid N2, powdered in a mortar and extracted with 6 ml of LS buffer (50 mM HEPES, pH 7.5, 5 mM NaCl). After centrifugation at 5000×g for 15 min to pellet debris, the supernate is filtered through glass wool to remove residual particles.
# PrnA is immunopurified by mixing extract (3 ml) with an affinity matrix. The affinity matrix is prepared by mixing for 30 minutes, at room temperature, 100 microliters of rabbit antigoat-IgG-agarose (purchased from Sigma) with 50 microliters of goat anti-PrnA sera. Then the agarose beads are washed three times with 1 ml of LS buffer. After mixing the 3 ml sample with the affinity matrix, unabsorbed material is removed from the beads by washing with LS buffer. A positive control sample is prepared by mixing 5 microliter of PrnA (0.36 microgram/microliter) purified from Pseudomonas fluorescens as described in Example 1 with 3 ml LS then treating in parallel with the plant extract samples. […]
molecule,measurement,value
B1,level of 7-Cl-Trp found,185 pmol
